These results are taken from US20250011363A1, “OPTIMIZED SHORTENED PEPTIDE THAT BINDS TO ACETYLCHOLINE RECEPTOR, AND USE THEREOF” (SKINMED CO., LTD., priority 2021, published 2025).

The target of this assay is acetylcholine receptor (Homo sapiens, UniProt P02708). The assay can be described thus: SPR binding affinity (RU) of optimized 5mer/6mer/7mer peptides, Examples 6-7. The settings on record: SPR, Resonance Units; peptides tested at 10 μM; 6mer-2 Bottom sequence. Put shortly: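 Peptides were tested at 10 μM by surface plasmon resonance against the receptor, with binding reported as response units. Library sequences were built from frequent (top) or infrequent (bottom) amino acid combinations in 5mer, 6mer-1 and 6mer-2 series.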
In general terms: In SPR one partner is held on a chip, and binding of the other changes the refractive index at the surface.

Chain of acetylcholine receptor (P02708 21-457): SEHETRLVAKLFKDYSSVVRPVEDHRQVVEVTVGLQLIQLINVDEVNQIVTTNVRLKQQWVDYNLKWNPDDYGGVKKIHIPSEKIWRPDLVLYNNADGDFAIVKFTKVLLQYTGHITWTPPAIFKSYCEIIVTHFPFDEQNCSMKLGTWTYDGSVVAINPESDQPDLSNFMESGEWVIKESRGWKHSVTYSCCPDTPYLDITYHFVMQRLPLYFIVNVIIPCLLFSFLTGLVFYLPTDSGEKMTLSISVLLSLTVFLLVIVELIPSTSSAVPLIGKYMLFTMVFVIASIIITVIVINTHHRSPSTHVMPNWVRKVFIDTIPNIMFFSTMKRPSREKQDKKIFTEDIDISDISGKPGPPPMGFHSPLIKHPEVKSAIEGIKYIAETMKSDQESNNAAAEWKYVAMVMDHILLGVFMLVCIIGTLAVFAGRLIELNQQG

On to 6mer-2-773 (KPDARR), for which the Binding affinity turned out to be 11 Ru.

Turning to 6mer-2-774 (KFDARK), the Binding affinity amounted to 17 Ru.

Turning to 6mer-2-775 (KMSMKK), the Binding affinity is 26 Ru.

As for 6mer-2-776 (RFPWRK), the Binding affinity came to 12 Ru.

Take 6mer-2-777 (KNDVRR): the Binding affinity was found to be 31 Ru.

For 6mer-2-778 (RNAPKK), the Binding affinity was determined as 21 Ru.

On to 6mer-2-779 (KAAHRR), for which the Binding affinity is given as 13 Ru.

As to 6mer-2-780 (KITIRK), the Binding affinity is listed as 31 Ru.

For 6mer-2-781 (KTMNRK), the Binding affinity came out at 28 Ru.

With 6mer-2-782 (KPWPKR), the Binding affinity amounted to 18 Ru.

With 6mer-2-783 (RDMVRK), the Binding affinity was 32 Ru.

As for 6mer-2-784 (KAEWRK), the Binding affinity was 26 Ru.

With 6mer-2-785 (RHCHRR), the Binding affinity is 31 Ru.

With 6mer-2-786 (RMEMRK), the Binding affinity amounted to 30 Ru.

As to 6mer-2-787 (RIWHKK), the Binding affinity came to 19 Ru.

As to 6mer-2-788 (KKEKKK), the Binding affinity is listed as 30 Ru.

Regarding 6mer-2-789 (KNENRK), the Binding affinity is 24 Ru.

Take 6mer-2-790 (RCAGRR): the Binding affinity was 23 Ru.

As to 6mer-2-791 (KNMNRK), the Binding affinity stood at 27 Ru.

Regarding 6mer-2-792 (RAEDKR), the Binding affinity worked out at 13 Ru.

As to 6mer-2-793 (RMHKKR), the Binding affinity was determined as 29 Ru.

In the case of 6mer-2-794 (KAEMRR), the Binding affinity is given as 19 Ru.

As for 6mer-2-795 (RTHNKR), the Binding affinity was 16 Ru.

Take 6mer-2-796 (RMMARR): the Binding affinity came to 32 Ru.

With 6mer-2-797 (RHCIKR), the Binding affinity was determined as 19 Ru.

In the case of 6mer-2-798 (RDTPKK), the Binding affinity was determined as 17 Ru.

Consider 6mer-2-799 (KCSAKK), for which the Binding affinity was found to be 13 Ru.

Regarding 6mer-2-800 (RTAWKK), the Binding affinity was 11 Ru.

For the substance 6mer-2-801 (RPNIRK), the Binding affinity came to 24 Ru.

On to 6mer-2-802 (KETKRR), for which the Binding affinity is 24 Ru.

With 6mer-2-803 (RNKERK), the Binding affinity came to 18 Ru.

Regarding 6mer-2-804 (RNCGKR), the Binding affinity is 21 Ru.

Turning to 6mer-2-805 (RDTMKK), the Binding affinity is 12 Ru.

6mer-2-806 (KHCVRK): the Binding affinity is 30 Ru.

On to 6mer-2-807 (KIWNRK), for which the Binding affinity turned out to be 28 Ru.

Consider 6mer-2-808 (RKKFKK), for which the Binding affinity amounted to 21 Ru.

Take 6mer-2-809 (REPWRR): the Binding affinity is recorded as 18 Ru.

Consider 6mer-2-810 (KHAKKK), for which the Binding affinity turned out to be 18 Ru.

Regarding 6mer-2-811 (KAMKRK), the Binding affinity was found to be 16 Ru.

Turning to 6mer-2-812 (KPPEKR), the Binding affinity was 33 Ru.

Turning to 6mer-2-813 (KKMDRR), the Binding affinity is on record as 29 Ru.

Take 6mer-2-814 (RYMERK): the Binding affinity came to 28 Ru.

With 6mer-2-815 (KICGRK), the Binding affinity was 30 Ru.

Turning to 6mer-2-816 (RKMGKR), the Binding affinity was found to be 15 Ru.

With 6mer-2-817 (KCNDKK), the Binding affinity worked out at 22 Ru.

On to 6mer-2-818 (KTPERK), for which the Binding affinity amounted to 13 Ru.

For 6mer-2-819 (KFSVRR), the Binding affinity is given as 23 Ru.

6mer-2-820 (RPNNKK): the Binding affinity is given as 24 Ru.

Consider 6mer-2-821 (RPTMKR), for which the Binding affinity came out at 33 Ru.

Turning to 6mer-2-822 (RCTAKK), the Binding affinity worked out at 13 Ru.

With 6mer-2-823 (REDWRK), the Binding affinity came out at 25 Ru.

For the substance 6mer-2-824 (RITNKR), the Binding affinity is reported as 26 Ru.

For the substance 6mer-2-825 (KIHARK), the Binding affinity is 11 Ru.

With 6mer-2-826 (RNTPRK), the Binding affinity amounted to 11 Ru.
